In article PMC12687424, “Penetrant PKCβ mutation in ATLL displays a mixed gain-of-function” (Biochemical Journal, 2025):
FAM = fluorescein label

Columns and labels:
[1] = molecular target: T1, WT PKCβII catalytic domain (UniProt P05771-2 321-673, primed (phosphorylated) at the three PKC priming sites (T-loop, turn motif, hydrophobic motif)); assay: fluorescence polarisation; PKCβII catalytic domain titrated into 280 nM fluorescein-PSS peptide in a cuvette; 20°C; 50 mM Tris-HCl pH 7.5, 150 mM NaCl, 5 mM MgCl2, 0.05% Brij-35, 500 μM AMP-PCP, 5% glycerol; anisotropy fitted assuming a 1:1 interaction; conditions: both partners purified
T1 construct: Protein kinase C beta, isoform PKCβII, catalytic domain released by TEV cleavage from GST-(3C)-PKCβII that carries a TEV site at position 321; Plasmids for WT PKCβI and PKCβII came from the laboratory archive; also called protein kinase C beta II catalytic domain; PKCβII kinase domain; source: SF21 cells (baculovirus), purified (Glutathione-Sepharose, His-TEV cleavage, Superdex 200); not shown: …

[2] = molecular target: T2, D427N PKCβII catalytic domain (UniProt P05771-2 321-673, D427N, phosphorylated at T500 and at the other two PKC priming sites in the C-terminal tail); assay: as above; conditions: both partners purified
T2 construct: D427N is a somatic mutation found in ATLL patients; source: SF21 cells (baculovirus), purified (Glutathione-Sepharose, His-TEV cleavage, Superdex 200); not shown: GST, N-terminal, cleaved
T2 sequence (P05771 other isoform, or with tags, fused parts or gaps D427N | D427N | D427N D427N): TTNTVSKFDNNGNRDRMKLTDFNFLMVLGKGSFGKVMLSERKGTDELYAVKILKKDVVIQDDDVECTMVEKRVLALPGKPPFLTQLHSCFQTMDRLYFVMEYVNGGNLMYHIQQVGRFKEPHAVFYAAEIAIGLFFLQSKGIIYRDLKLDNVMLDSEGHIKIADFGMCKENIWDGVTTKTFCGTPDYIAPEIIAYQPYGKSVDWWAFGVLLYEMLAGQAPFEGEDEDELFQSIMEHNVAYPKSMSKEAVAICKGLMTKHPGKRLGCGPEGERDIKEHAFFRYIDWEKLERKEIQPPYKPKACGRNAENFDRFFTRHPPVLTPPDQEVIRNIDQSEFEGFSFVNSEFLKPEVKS

T1 sequence (P05771 other isoform, or with tags, fused parts or gaps): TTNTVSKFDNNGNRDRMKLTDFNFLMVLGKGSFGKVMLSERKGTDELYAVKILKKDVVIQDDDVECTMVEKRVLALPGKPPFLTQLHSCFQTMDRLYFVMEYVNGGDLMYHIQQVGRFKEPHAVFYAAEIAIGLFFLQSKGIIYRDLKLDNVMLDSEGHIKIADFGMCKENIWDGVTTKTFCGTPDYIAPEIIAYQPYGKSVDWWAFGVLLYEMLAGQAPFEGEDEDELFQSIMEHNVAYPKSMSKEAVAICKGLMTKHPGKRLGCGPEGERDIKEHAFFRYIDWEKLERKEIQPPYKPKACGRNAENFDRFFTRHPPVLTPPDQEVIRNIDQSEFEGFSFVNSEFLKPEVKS

Kd [1]: 35.3 µM
Kd [2]: 72 µM
B1: Fluorescein-PSS peptide (peptide)
peptide: {FAM}-ESTVRFARKGSLRQKNVH-NH2
notes: source: synthetic peptide (HPLC purified to >95%)
